Consider 116 sequences from the supplement of paper PMC10724198.

± gives the standard deviation of the averaged measurements.
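Also: PSI is a weighted mean of sequencing reads over stability bins, variants kept only with over 10 reads, mCherry proximal and sfGFP distal, peptide attached via GGGS linker.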

The subject of the data set is Saccharomyces cerevisiae. The experiment in a line: protein stability index of tFT-peptide fusion (C-terminal peptide) (PSI (0-1 scale)); higher = more stable (slower turnover). The following applies: genetic background: wild type; temperature: 30 C.
Turning to KKITSIHKKRER, the protein stability index turned out to be 0.822 ± 0.12.

In turn, KKKDKKVKRRKV had a protein stability index of 0.769 ± 0.031.

In turn, KKKEGRMKQIYE showed a protein stability index of 0.688 ± 0.0088.

For the sequence KKKEKTSEEKKK, the protein stability index was 0.701 ± 0.029.

With KKKGDKVGTKEQ, the protein stability index came out at 0.657 ± 0.048.

Sequence KKKIKIQPRTEN displayed a protein stability index of 0.7302 ± 0.0065.

In turn, KKKKDKEIIHKE gave a protein stability index of 0.758 ± 0.12.

In the case of KKKKEEKQKGLK, the protein stability index is 0.69 ± 0.028.

As for KKKKEISNEAKQ, the protein stability index turned out to be 0.672 ± 0.093.

Take KKKKFQDQKIDE: the protein stability index is 0.629 ± 0.0068.

The sequence KKKKKEKNKIKI yielded a protein stability index of 0.689 ± 0.14.

KKKKKGASEDNI returned a protein stability index of 0.786 ± 0.1.

KKKKKKKEKKAK came in with a protein stability index of 0.644 ± 0.042.

On to KKKKKKKEYKKK, for which the protein stability index is 0.752 ± 0.038.

On to KKKKKKKKKNNK, for which the protein stability index was found to be 0.6851 ± 0.0035.

Take KKKKKKKYKQRK: the protein stability index is 0.706 ± 0.05.

The sequence KKKKKKTNKKKE displayed a protein stability index of 0.758 ± 0.065.

The sequence KKKKKKVKNTKE displayed a protein stability index of 0.698 ± 0.047.

In turn, KKKKNKKKNKKK yielded a protein stability index of 0.669 ± 0.011.

As for KKKKNKKKTKKT, the protein stability index was found to be 0.784 ± 0.17.

For KKKNKKKEKKKN, the protein stability index was determined as 0.714 ± 0.049.

KKKNNEKLEEKK gave a protein stability index of 0.687 ± 0.0098.

On to KKKNNKRKAKNK, for which the protein stability index was 0.6918 ± 0.0012.

Regarding KKKNQLSKVTKR, the protein stability index is 0.702 ± 0.031.

KKKRNSYMKGNR displayed a protein stability index of 0.681 ± 0.1.

Turning to KKLAPHPLTTRV, the protein stability index turned out to be 0.642 ± 0.078.

KKLKQTRRKKEN yielded a protein stability index of 0.7296 ± 0.0068.

As to KKMSGNKLKNKN, the protein stability index came to 0.643 ± 0.013.

In turn, KKNAFIYKRRPR came in with a protein stability index of 0.714 ± 0.04.

The sequence KKNHTQIKEVPR came in with a protein stability index of 0.6943 ± 0.00099.

The sequence KKNHYKAICNRR registered a protein stability index of 0.619 ± 0.0075.

KKNICIKVENSY showed a protein stability index of 0.676 ± 0.031.

For the sequence KKNKEKGEREKK, the protein stability index was 0.615 ± 0.058.

In the case of KKNKGKGREVRI, the protein stability index stood at 0.67 ± 0.049.

Consider KKNKKKKEKKAK, for which the protein stability index is 0.625 ± 0.025.

Consider KKNKQEKPKKPK, for which the protein stability index was 0.698 ± 0.0062.

KKNSTKKKKESW showed a protein stability index of 0.633 ± 0.029.

In turn, KKPHKTKGICYT returned a protein stability index of 0.673 ± 0.012.

On to KKQHTIKKKKKR, for which the protein stability index was determined as 0.734 ± 0.028.

As to KKQKKKQNKQKT, the protein stability index came to 0.731 ± 0.026.

The sequence KKQKPKVTSTKT had a protein stability index of 0.712 ± 0.037.

In turn, KKQRKRKMTERG registered a protein stability index of 0.742 ± 0.11.

In turn, KKRKKDKRSQER yielded a protein stability index of 0.671 ± 0.068.

In turn, KKRMDKIKDKKI had a protein stability index of 0.713 ± 0.098.

KKRQNIAKSEDT returned a protein stability index of 0.701 ± 0.025.

On to KKRREKRTEKKQ, for which the protein stability index was 0.661 ± 0.027.

The sequence KKSERRGQKDYE had a protein stability index of 0.696 ± 0.028.

With KKSGISSGPNDT, the protein stability index came out at 0.689 ± 0.043.

With KKSLNTKIQTRE, the protein stability index amounted to 0.707 ± 0.029.

KKTDNGSYERGE showed a protein stability index of 0.701 ± 0.018.

KKTKKGINVEER yielded a protein stability index of 0.662 ± 0.0097.

On to KKTKKKRTEPQP, for which the protein stability index was determined as 0.724 ± 0.068.

The sequence KKTQKKKKLIPQ had a protein stability index of 0.7046 ± 0.0062.

As for KKVGHGLRERGQ, the protein stability index came out at 0.628 ± 0.061.

Sequence KKVKKKRSKKNT came in with a protein stability index of 0.66 ± 0.17.

KKYNNMRKHYVK registered a protein stability index of 0.701 ± 0.02.

For the sequence KLFWYLDCKLLY, the protein stability index stood at 0.579 ± 0.0073.

KLIVPCSPIRLS displayed a protein stability index of 0.6929 ± 0.0043.

Regarding KLKIDKKKNTFE, the protein stability index stood at 0.728 ± 0.047.

For KLLLYNILSYWS, the protein stability index turned out to be 0.56105 ± 0.00055.

The sequence KMILVGMKKSVV returned a protein stability index of 0.6502 ± 0.0026.

For the sequence KMNKTEYINGMT, the protein stability index is 0.652 ± 0.038.

The sequence KNEEKIDKIEEQ returned a protein stability index of 0.72 ± 0.09.

KNFGHQGDVCRR came in with a protein stability index of 0.734 ± 0.037.

KNKKFKKDEKTR registered a protein stability index of 0.773 ± 0.059.

Sequence KNKNKKTPARYR had a protein stability index of 0.692 ± 0.015.

KNNKIKHIKVKN gave a protein stability index of 0.679 ± 0.017.

As to KNPKKMKKVTTK, the protein stability index worked out at 0.694 ± 0.0091.

As to KNQRTLKSPQEV, the protein stability index was found to be 0.6387 ± 0.0055.

On to KNQTDRRKKIIN, for which the protein stability index is 0.648 ± 0.039.

Sequence KNVVSVRWERNE displayed a protein stability index of 0.635 ± 0.084.

In turn, KPKKKNPREKPV registered a protein stability index of 0.669 ± 0.064.

In turn, KPPPSISLSWLE showed a protein stability index of 0.716 ± 0.0024.

The sequence KPQFNLQYTVKI yielded a protein stability index of 0.616 ± 0.025.

KQHWIDDRNRIE showed a protein stability index of 0.716 ± 0.065.

KQKKKSQTKTRK came in with a protein stability index of 0.718 ± 0.034.

On to KQKNKNNVKQPN, for which the protein stability index amounted to 0.693 ± 0.012.

KQKRQLPRKNET came in with a protein stability index of 0.639 ± 0.0092.

For the sequence KQLKKKKQIRRK, the protein stability index worked out at 0.728 ± 0.13.

Turning to KQNQKKREITAG, the protein stability index was determined as 0.664 ± 0.055.

With KREEKKTKRKKK, the protein stability index came to 0.712 ± 0.048.

On to KRGKRKEGGKAR, for which the protein stability index was determined as 0.687 ± 0.065.

In turn, KRIRTKLKKTQK displayed a protein stability index of 0.695 ± 0.011.

For KRKKEKNQPTKR, the protein stability index is 0.6972 ± 0.0044.

KRKKNKEENQTE showed a protein stability index of 0.708 ± 0.016.

For KRLEFLTHAVFK, the protein stability index was 0.7281 ± 0.0025.

KRSVSIESMTQA showed a protein stability index of 0.699 ± 0.011.

As for KSASIGTTLRNL, the protein stability index turned out to be 0.699 ± 0.022.

On to KSDKVYKQKPNT, for which the protein stability index was determined as 0.705 ± 0.11.

KSIVAQGRLKPR displayed a protein stability index of 0.685 ± 0.026.

KSKTYIKKTRKQ returned a protein stability index of 0.744 ± 0.031.

The sequence KSRRTTMINIRC registered a protein stability index of 0.668 ± 0.016.

Turning to KTALWQPNCKTD, the protein stability index was 0.655 ± 0.011.

Regarding KTFGHQYVFIRK, the protein stability index is 0.689 ± 0.013.

Consider KTKKRHKENRKE, for which the protein stability index worked out at 0.791 ± 0.067.

On to KTKNEKHPKTTK, for which the protein stability index amounted to 0.766 ± 0.045.

In turn, KTLALSAQHPGS showed a protein stability index of 0.645 ± 0.012.

For KTNKDKKRTKTV, the protein stability index turned out to be 0.714 ± 0.2.

Regarding KTTTQRQEETAE, the protein stability index is 0.605 ± 0.033.

In turn, KVAFKTNQHLGR yielded a protein stability index of 0.661 ± 0.03.

Sequence KVAGRLAATRSR came in with a protein stability index of 0.716 ± 0.013.

Consider KVCGRIWWCPRA, for which the protein stability index was 0.638 ± 0.03.

Regarding KVDYIKKKNSRE, the protein stability index was found to be 0.7142 ± 0.0036.

KVEVKRMKKEVK: the protein stability index was determined as 0.668 ± 0.014.

KVFTQGPGRMLE yielded a protein stability index of 0.758 ± 0.021.

As for KVGGRGQGVKLG, the protein stability index was found to be 0.629 ± 0.034.

For the sequence KVIGSAPRAEGR, the protein stability index is 0.656 ± 0.065.

KVLGSNNMRRSS displayed a protein stability index of 0.702 ± 0.018.

Sequence KVMTEARTPALS returned a protein stability index of 0.702 ± 0.027.

The sequence KVRGMKIKGKLD came in with a protein stability index of 0.675 ± 0.054.

In turn, KVYTALWLLAGN showed a protein stability index of 0.698 ± 0.028.

Sequence KWETAAGSSDGP displayed a protein stability index of 0.6993 ± 0.0032.

Regarding KWNITKEQENSR, the protein stability index amounted to 0.681 ± 0.018.

Regarding KWQRIKNSPNRK, the protein stability index was found to be 0.749 ± 0.059.

With KYNKSRRGKIKT, the protein stability index stood at 0.697 ± 0.062.

LAALVGGNRGRG registered a protein stability index of 0.704 ± 0.081.
